Consider one substance from PMC7518097.

The experiment has as its target Kv7.2 G279S (human). Description: co-IP; lysates of transfected cells incubated with protein A magnetic beads pre-coated with guinea pig anti-KCNQ2-C2 antibodies; CaM detected by western blot (mouse anti-calmodulin); CaM band normalized to WT. In general terms: In western blotting, separated proteins are transferred to a membrane and probed.

As to “calmodulin (from UniProt P0DP23 1-149) (natural protein)”, the CaM co-immunoprecipitated, normalized to WT (relative to WT) came out at 0.71.
